Measured values reported in doi:10.1101/2020.01.15.908418.
Where two headings read alike, the source gives them in different places.

Columns and labels:
[1] = target: tropomyosin of murine cardiac thin filaments (mouse (endogenous in murine ventricular myocardium)) (UniProt P58771); assay: cryo-EM structure
[2] = target: tropomyosin of murine cardiac thin filaments (mouse (endogenous in murine ventricular myocardium)) (UniProt P58771); assay: cryo-EM structure; remark: listed apart in the source

- stoichiometry N [1]: 2
- stoichiometry N [2]: 2
Substance: tropomyosin of murine cardiac thin filaments (from UniProt P58771 1-284) (natural protein)
